Results published in US8309523 (VIB VZW, dated 2012).

What was measured:
MALT1-R149A (bio-tagged) = target: T1, MALT1-R149A (bio-tagged) (human, UniProt Q9UDY8 1-824, Avi-tag biotinylated in vivo by co-expressed BirA); experiment: co-IP (bio-IP, immunoblot)
T1 construct: also called R149A mutant
T1 sequence (looked up): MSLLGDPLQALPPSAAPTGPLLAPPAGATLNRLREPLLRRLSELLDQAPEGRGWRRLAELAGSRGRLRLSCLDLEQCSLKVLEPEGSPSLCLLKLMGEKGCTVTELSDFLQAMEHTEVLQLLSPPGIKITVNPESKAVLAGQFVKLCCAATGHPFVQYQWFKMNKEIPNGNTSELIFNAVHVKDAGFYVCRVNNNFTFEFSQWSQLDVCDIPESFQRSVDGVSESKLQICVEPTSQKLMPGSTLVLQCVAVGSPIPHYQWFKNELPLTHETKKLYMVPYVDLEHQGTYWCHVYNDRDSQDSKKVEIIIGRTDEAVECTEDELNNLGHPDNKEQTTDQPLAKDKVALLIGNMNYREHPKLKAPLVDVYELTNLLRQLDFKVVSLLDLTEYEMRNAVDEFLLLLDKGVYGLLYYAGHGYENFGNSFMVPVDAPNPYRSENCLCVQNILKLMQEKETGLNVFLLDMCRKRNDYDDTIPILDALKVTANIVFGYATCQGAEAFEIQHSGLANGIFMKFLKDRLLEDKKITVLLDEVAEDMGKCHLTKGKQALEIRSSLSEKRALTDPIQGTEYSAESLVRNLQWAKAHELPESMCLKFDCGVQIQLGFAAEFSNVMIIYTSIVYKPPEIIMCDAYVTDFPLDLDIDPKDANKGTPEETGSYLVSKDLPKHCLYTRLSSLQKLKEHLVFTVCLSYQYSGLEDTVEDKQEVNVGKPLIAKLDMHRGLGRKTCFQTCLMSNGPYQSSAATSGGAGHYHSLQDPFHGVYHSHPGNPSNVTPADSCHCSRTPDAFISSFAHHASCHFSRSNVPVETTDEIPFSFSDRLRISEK

p76 T6Ig-m (E313A/E316A) = target: T2, p76 T6Ig-m (E313A/E316A) (human, UniProt Q9UDY8 150-824, Avi-tag biotinylated in vivo by co-expressed BirA); experiment: bio-IP from HEK293T cells, anti-TRAF6 immunoblot
T2 construct: domain: p76 cleavage fragment
T2 sequence (looked up): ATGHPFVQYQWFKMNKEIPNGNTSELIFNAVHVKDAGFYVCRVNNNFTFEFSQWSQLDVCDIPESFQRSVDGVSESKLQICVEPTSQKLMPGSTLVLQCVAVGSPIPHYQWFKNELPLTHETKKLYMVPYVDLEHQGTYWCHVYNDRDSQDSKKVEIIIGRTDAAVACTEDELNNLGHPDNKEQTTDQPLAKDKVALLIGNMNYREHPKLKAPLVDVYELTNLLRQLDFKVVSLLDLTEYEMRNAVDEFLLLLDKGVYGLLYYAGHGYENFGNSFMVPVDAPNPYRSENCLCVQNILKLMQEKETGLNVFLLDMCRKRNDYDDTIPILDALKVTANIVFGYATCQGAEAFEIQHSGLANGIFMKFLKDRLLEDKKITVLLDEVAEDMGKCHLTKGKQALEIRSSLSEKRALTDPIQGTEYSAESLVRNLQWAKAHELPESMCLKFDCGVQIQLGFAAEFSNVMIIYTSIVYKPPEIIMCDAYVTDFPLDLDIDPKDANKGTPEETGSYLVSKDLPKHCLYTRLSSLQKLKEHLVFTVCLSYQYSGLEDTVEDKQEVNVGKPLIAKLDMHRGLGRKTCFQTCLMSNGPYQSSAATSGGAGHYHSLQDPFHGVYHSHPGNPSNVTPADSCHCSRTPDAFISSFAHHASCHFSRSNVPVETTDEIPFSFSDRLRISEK
Text: (§1) FIG. 5: p76 activates NFκB via TRAF6. […] Panel B) TRAF6 mediates NFκB signaling by p76. Top: NFκB-reporter assays of HEK293T cells transiently expressing MALT1, p76 and mutants or MALT1-C. Bottom: MALT1, p76 or MALT1-C, transiently expressed in HEK293T cells, were purified via bio-IPs and immunoblotted with anti-MALT1 (to show equal expression), anti-TRAF6 and anti-BCL10. Panel C) p76 induces polyubiquitination of IKKγ. Immunoblot analysis of bio-IP and IKKγ-IP of 293T cells transfected with pcD-F-IKKγ and pcd-HA-Ub in combination with indicated Avi-tagged MALT1 constructs. Panel D) BCL10 is not involved in NFκB signaling by p76. NFκB reporter assays of HEK-293T cells transfected with siRNA duplexes against MALT1, BCL10 or GFP (as control) followed by transient transfection with p76. The expression levels were determined by immunoblot with anti-MALT1 and anti-BCL10. NFκB-dependent luciferase activity […] is shown as fold induction of vector-transfected cells and represents the mean+/−S.D. of three independent experiments.
(§2) NFκB activation by MALT1 requires TRAF6 binding via two distinct sites (19), which are both present in the p76 cleavage fragment. Mutation of one TRAF6 binding site, either E313A/E316A (T6Ig-m) or E806A (T6C-m), abolished the potential of p76 to activate NFκB signaling in 293T cells (FIG. 5, Panel B). […] Furthermore, NFκB activation by p76 in 293T cells was associated with increased polyubiquitination of IKKγ (FIG. 5, Panel C).

[1] = target: T3, p76 T6Ig/C-m (E313A/E316A and E806A) (human, UniProt Q9UDY8 150-824, Avi-tag biotinylated in vivo by co-expressed BirA); experiment: bio-IP from HEK293T cells, anti-TRAF6 immunoblot
T3 construct: domain: p76 cleavage fragment
T3 sequence (looked up): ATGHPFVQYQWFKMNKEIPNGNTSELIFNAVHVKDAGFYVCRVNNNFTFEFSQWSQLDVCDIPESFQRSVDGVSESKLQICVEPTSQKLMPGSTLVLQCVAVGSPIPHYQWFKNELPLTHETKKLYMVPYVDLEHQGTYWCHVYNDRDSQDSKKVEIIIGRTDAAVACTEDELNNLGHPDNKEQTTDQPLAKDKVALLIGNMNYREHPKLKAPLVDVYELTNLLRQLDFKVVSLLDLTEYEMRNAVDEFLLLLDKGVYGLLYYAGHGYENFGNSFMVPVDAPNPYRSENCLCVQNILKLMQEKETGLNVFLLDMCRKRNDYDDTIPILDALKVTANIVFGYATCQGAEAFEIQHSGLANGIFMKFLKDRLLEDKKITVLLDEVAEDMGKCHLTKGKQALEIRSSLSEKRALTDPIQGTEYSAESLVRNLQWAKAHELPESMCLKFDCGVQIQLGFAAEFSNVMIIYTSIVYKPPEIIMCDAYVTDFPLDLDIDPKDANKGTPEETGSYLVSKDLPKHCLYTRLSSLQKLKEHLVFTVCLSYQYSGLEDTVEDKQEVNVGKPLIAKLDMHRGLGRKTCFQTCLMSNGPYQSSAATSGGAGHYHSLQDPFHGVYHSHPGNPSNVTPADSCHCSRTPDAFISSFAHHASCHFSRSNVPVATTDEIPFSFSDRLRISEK
Text: as §1, §2

| Binder | binding result (MALT1-R149A (bio-tagged)) | binding result (p76 T6Ig-m (E313A/E316A)) | binding result [1] |
| --- | --- | --- | --- |
| BCL10 (other, UniProt O95999 1-233, looked up, Co-precipitated from lysates of human cell lines) MEPTAPSLTEEDLTEVKKDALENLRVYLCEKIIAERHFDHLRAKKILSREDTEEISCRTSSRKRAGKLLDYLQENPKGLDTLVESIRREKTQNFLIQKITDEVLKLRNIKLEHLKGLKCSSCEPFPDGATNNLSRSNSDESNFSEKLRASTVMYHPEGESSTTPFFSTNSSLNLPVLEVGRTENTIFSSTTLPRPGDPGAPPLPPDLQLEEEGTCANSSEMFLPLRSRTVSRQ | binds | – | – |
| TRAF6 (other, UniProt Q9Y4K3 1-522, looked up, Co-precipitated from lysates of human cell lines) MSLLNCENSCGSSQSESDCCVAMASSCSAVTKDDSVGGTASTGNLSSSFMEEIQGYDVEFDPPLESKYECPICLMALREAVQTPCGHRFCKACIIKSIRDAGHKCPVDNEILLENQLFPDNFAKREILSLMVKCPNEGCLHKMELRHLEDHQAHCEFALMDCPQCQRPFQKFHINIHILKDCPRRQVSCDNCAASMAFEDKEIHDQNCPLANVICEYCNTILIREQMPNHYDLDCPTAPIPCTFSTFGCHEKMQRNHLARHLQENTQSHMRMLAQAVHSLSVIPDSGYISEVRNFQETIHQLEGRLVRQDHQIRELTAKMETQSMYVSELKRTIRTLEDKVAEIEAQQCNGIYIWKIGNFGMHLKCQEEEKPVVIHSPGFYTGKPGYKLCMRLHLQLPTAQRCANYISLFVHTMQGEYDSHLPWPFQGTIRLTILDQSEAPVRQNHEEIMDAKPELLAFQRPTIPRNPKGFGYVTFMHLEALRQRTFIKDDTLLVRCEVSTRFDMGSLRREGFQPRSTDAGV | – | binds | no binding |
